Measured values as given in the DeepSol protein solubility set.

Test: soluble on expression in E. coli; label from the status in PepcDB or PDB records

Sequence | soluble on expression in E. coli
MCIGVPVQVISPGQWFAKCRDRHGELIDVDIRLVAPPLAGAWLLTFGGAARREMDEAEAAEVLAALDSLEQAMLTQSDPLTGFADLLSRTPELPEHLKK | not soluble
MAHHHHHHMGGAVSFCLQKLNKVSEVEYRPYKEYASYGEQSVPVKGSDDSGRSMIYRMSNTSEEELKRLRDEWYAGGSCLSVLERLCKERGKRTCLAYRKLKTIEKNETTTSDGRKKVLETYVFEPERRTMSYTLFWQNIVDFGRGLHEIGLTKGNTVSIYEETRWQWLCTMYSCWSQGLLVSTVYANLGEDALQYALDEAQCNAIVCNGSKVKDVLAMFKVIEAPKGTKVIYLDELPPSVTSEEYDLYAWSDVVARGKKSEASCRIPSGAESKDELALIMYTSGTTGNPKGVMHTHGSLYCGCMTISQRINDLLGKMKEQEWYCSYLPLAHIMELAVTSVLMMRGVIIGYGSPRTLLDTFAKPCGDLTTYRPLVFVAVPRVFDSMKRAVEEKLPPPGSLKRKIFDKAYEARLKALKKGCDTPFFNKRVFANARKVMGGRVYAMLSGGGPLSESTQEFINVVFGMVIQGWGMTESVACGGIQRTGNLEYNCVGQVLKTAEVQLLDTDEFKHTDQPEPRGEVLLRGPFLFKGYYKQPEQTREALDNDGWLHTGDVASVTPSGTMRIVGRVKALAKNANGEYLALEMLESIYGTNEITVPNGVCVLVHPHRTYIAIIAVTNEKLVKAFMKKHKIENGGFPAILDDAEFLRVVLQSLQKTARDANRCSFEVVQGVKLLNEEWTPENGVLTAAMKLKRRVISENYADFINKLFEKQ | not soluble
MAHHHHHHMGTLEAQTQGPGSMPIKSSLLIVVACALLDQDNRVLLTQRPEGKSLAGLWEFPGGKVEQGETPEASLIRELEEELGVHVQADNLFPLTFASHGYETFHLLMPLYFCSHYKGVAQGREGQNLKWIFINDLDKYPMPEADKPLVQVLKNFFI | soluble
MHIDNVVFMKKVLDASAFINGYVPEGRENYTVRSVTEEIRDFRSMMILEDALREGRLKITEPDPESMKVVEDAISESGDIMRLSPTDMEVIGLAVSLRGKDDVTVITDDYTIQNTLKILGIGFRSVLTSGIRDTYSWRRVCTGCRRVYPLDYEFEECEICGSRIVRKRHRNLEHHHHHH | soluble
LTCESVRSTDSPHFAMLDALYARAFPCHEQRESEAKRQALSHPRYALEAWFDEGVFVGLSGCWQFAGYGYIEHLAIDDTLRSRGYGKQLLAQILTRAPLTILEIDPLTTAIAHKRLRFYQSMGFHANPWAHHHPSYHQGIADHELLVLSYPQP | not soluble
SLVGTPNLLTLDEADATWTLIKDKVIEEHFGPNAVAVPFLSDAACYDLLGVLVKQSRPAHTRLALPGRQGRRALKPVGPLPSLLEQAGSEGAFAHCTREYSPNGRAERAYEETRMLDGQPCKIRLHMGDLRKKVAFLLLPPGQVSLQQTLPWLRSTHSIYVIYQVFSCSWLQLGLTSTAREPQLLRLLRSLPVAFSCLKFSLQSKGVLGPQKPLTKDPLPHGANWVRPNLSIMPPLAPTSASADTTEAADVPPPVPAPPTPPPQEGPEDKPTRFSYKGRNPFWRGPQILSENWLFSPRSPPPGAQGGGPRDPDGHSMSLPLLQGLSSEFDSDD | not soluble
MPQQTQTSAEKRCMVTKRIMLKLPDISAASLIPASIEASPAQVLGPASLAGIFPRGVRVYLTDTGAASQEKLVDAATHLRNLGYEPVPHLAARRIPSRVEFEEQVKRLAGEADVTDVLVVGGGVDRPAGPFASSMDMLSSGIFDRYGIKKIAIAGHPEGSPDFSEETAIAALRLKRDFGERSDAAMRIVTQFGFDPARFIAWAEGLAASGIDLPVHIGVSGPAKITTLLKYAALCGVGNSIAYLKKNALSLTTLARGHSPDSIVGPIERHWQANPQGPIRQIHVFPFGGLQNSADWLVSRGSWQTRDAGRPAPADSMAG | not soluble
MSLSEIDQVSYNFHIRPILSDKCFACHGPDANKREADLRLDTEEGAFKALKESPGKFALVSGKPEESELFHRITSEDPGELMPPTESNLVLSDTEIGLIKKWIEQGAEYEPHWAFTKAEKPELPSENEWAVNEIDRFVYQKMVEKGLEPNPKADPQELIKRASLDITGLPPSPEILDQYSDLSNDAYQNLLDGLLADPSFGEKLGVLWMDISRYADSYGYQDDNIRSQWPYRDWVIHAFNENMPYDQFITYQLAGDLLPNATKEQILATAFNRNHKYTEEGGVIDEEYRIEYVLDKTNTFSKGVLGITMECAQCHDHKYDPFSQKDYYELFAFFNNTPEKGYEGDVSVSKPAKTPILWVDQEGHHHHHH | soluble
MTENNRLSVKLPGLDLKNPIIPASGCFGFGEEYAKYYDLNKLGSIMVKATTLHPRFGNPTPRVAETASGMLNAIGLQNPGLEVIMTEKLPWLNENFPELPIIANVAGSEEADYVAVCAKIGDAANVKAIELNISCPNVKHGGQAFGTDPEVAAALVKACKAVSKVPLYVKLSPNVTDIVPIAKAVEAAGADGLTMINTLMGVRFDLKTRQPILANITGGLSGPAIKPVALKLIHQVAQDVDIPIIGMGGVANAQDVLEMYMAGASAVAVGTANFADPFVCPKIIDKLPELMDQYRIESLESLIQEVKEGKK | soluble
MNETPTRVYAEIDLDAVRANVRALRARAPRSALMAVVKSNAYGHGAVPCARAAQEAGAAWLGTATPEEALELRAAGIQGRIMCWLWTPGGPWREAIETDIDVSVSGMWALDEVRAAARAAGRTARIQLKADTGLGRNGCQPADWAELVGAAVAAQAEGTVQVTGVWSHFACADEPGHPSIRLQLDAFRDMLAYAEKEGVDPEVRHIANSPATLTLPETHFDLVRTGLAVYGVSPSPELGTPAQLGLRPAMTLRASLALVKTVPAGHGVSYGHHYVTESETHLALVPAGYADGIPRNASGRGPVLVAGKIRRAAGRIAMDQFVVDLGEDLAEAGDEAVILGDAERGEPTAEDWAQAAHTIAYEIVTRIGGRVPRVYLGGLEHHHHHH | soluble
MGSDKIHHHHHHMMKMERKNVWHHRKKEEIEAFSKEYMEFMSKAKTERMTVKEIKRILDESGFVPLEDFAGDPMNMTVYAVNRGKAIAAFRVVDDLKRGLNLVVAHIDSPRLDFKPNPLIEDEQIALFKTHYYGGIKKYHWLSIPLEIHGVLFKNDGTEIEIHIGDKPEDPVFTIPDLLPHLDKEDAKISEKFKGENLMLIAGTIPLSGEEKEAVKTNVLKILNEMYGITEEDFVSGEIEVVPAFSPREVGMDRSLIGAYGQDDRICAYTALRALLSANPEKSIGVIFFDKEEIGSDGNTGAKARFYLKALRQILKMQGAKDSEFVLDEVLENTSVISGDVCAAVNPPYKDVHDLHNAPKLGYGVALVKYTGARGKYSTNDAHAEFVARVRKVLNEQGVIWQVATLGKVDQGGGGTIAKFFAERGSDVIDMGPALLGMHSPFEISSKADLFETYVAYRSLMEKL | not soluble
MGSDKIHHHHHHMTTTPFNRLLLTGAAGGLGKVLRERLKGYAEVLRLSDISPMAPAAGPHEEVITCDLADKAAVHTLVEGVDAIIHFGGVSTEHAFEEILGPNICGVFHVYEAARKHGVKRIIFASSNHTIGFYRQDERIDAHAPRRPDSYYGLSKCYGEDVASFYFDRYGIETVSIRIGSSFPQPQNLRMLCTWLSYDDLVQLIERGLFTPGVGHTIVYGASDNRTVWWDNRHAAHLGYVPKDSSETFRAAVEAQPAPAADDPSMVYQGGAFAVAGPFN | not soluble
MISTRFLRPSVSIFGFGIKSSMSSRAPPKALLQDMVVPPRQLFGPGPSNMADSIAETQSRNLLGHLHPEFVQIMADVRLGLQYVFKTDNKYTFAVSGTGHSGMECAMVNLLEPGDKFLVVEIGLWGQRAADLANRMGIEVKKITAPQGQAVPVEDIRKAIADYKPNLVFVCQGDSSTGVAQPLETIGDACREHGALFLVDTVASLGGTPFAADDLKVDCVYSATQKVLNAPPGLAPISFSDRAMEKIRNRKQRVASFYFDAIELGNYWGCDGELKRYHHTAPISTVYALRAALSAIAKEGIDESIQRHKDNAQVLYATLKKHGLEPFVVDEKLRLPCLTTVKVPEGVDWKDVAGKMMTNGTEIAGGLGATVGKIWRIGTFGINSNSTKIENVVELLSKSIGEKSK | not soluble
